± gives the uncertainty stated by the source.
Experiment: self-splicing fitness, log relative to wild type (ln ratio); higher = more splicing; Tetrahymena group I intron in knt gene, E. coli kanamycin selection, DiMSum; sequences stand for … in CUCUCU…GGAGGGAAAAGUUAUCAGGCAUGCACCUGGUAGCUAGUCUUUAAACCAAUAGAUUGCAUCGGUUUAAAAGGCAAGACCGUCAAAUUGCGGGAAAGGGGUCAACAGCCGUUCAGUACCAAGUCUCAGGGGAAACUUUGAGAUGGCCUUGCAAAGGGUAUGGUAAUAAGCUGACGGACAUGGUCCUAACCACGCAGCCAAGUCCUAAGUCAACAGAUCUUCUGUUGAUAUGGAUGCAGUUCACAGACUAAAUGUCGGUCGGGGAAGAUGUAUUCUUCUCAUAAGAUAUAGUCGGACCUCUCCUUAAUGGGAGCUAGCGGAUGAAGUGAUGCAACACUGGAGCCGCUGGGAACUAAUUUGUAUGCGAAAGUAUAUUGAUUAGUUUUGGAGUACUCGUGGUCG
How it was run: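 A randomised library covering all eight P1ex-region intron nucleotides was built with the intron in the knt kanamycin-resistance gene on pET-22b(+) and held in E. coli BL21(DE3). Cells were grown overnight at 37°C or 30°C on LB agar, with or without 25 μg/mL kanamycin, plus 100 μg/mL carbenicillin, 50 μM IPTG and 0.2% rhamnose, and pooled colonies were amplicon-sequenced on an Illumina HiSeq 2500. DiMSum fitness is the error-weighted combination of wild-type-normalised replicate fold changes, kanamycin versus none.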

| Sequence | self-splicing fitness (ln) (30 °C) | self-splicing fitness (ln) (37 °C) |
| --- | --- | --- |
| CAUUAGCAAUAUUACGCGGA | -2.93 ± 0.23 | -1 ± 0.14 |
| AUAGAGCAAUAUUACGGACA | -2.38 ± 0.27 | -0.896 ± 0.33 |
| CCAGAGCAAUAUUACGCACG | -2.06 ± 0.22 | 0.34 ± 0.17 |
| UAGUAGCAAUAUUACGGGGA | -2.44 ± 0.33 | -3.25 ± 0.47 |
| GACGAGCAAUAUUACGUAAG | -3.67 ± 0.41 | -0.245 ± 0.22 |
| GCAAAGCAAUAUUACGGAAU | -2.6 ± 0.1 | -0.938 ± 0.11 |
| UUUCAGCAAUAUUACGGGAG | -0.794 ± 0.07 | -0.0774 ± 0.1 |
| UCCUAGCAAUAUUACGCUCU | -3.33 ± 0.3 | -2.67 ± 0.3 |
| CAUCAGCAAUAUUACGGACU | -3.78 ± 0.22 | -0.896 ± 0.13 |
| CACGAGCAAUAUUACGACUU | -4.4 ± 0.34 | -0.766 ± 0.13 |
| UAAUAGCAAUAUUACGUGGG | -2.91 ± 0.3 | -3.08 ± 0.27 |
| GACAAGCAAUAUUACGCUUU | -3.43 ± 0.42 | -2.11 ± 0.32 |
| AUGUAGCAAUAUUACGUAGC | -2.56 ± 0.18 | -2.43 ± 0.29 |
| UACCAGCAAUAUUACGGGAU | -3.25 ± 0.16 | -1.53 ± 0.12 |
| CCAUAGCAAUAUUACGUCUG | -1.4 ± 0.075 | -0.687 ± 0.07 |
| CCGGAGCAAUAUUACGGCCG | -2.44 ± 0.26 | -0.644 ± 0.21 |
| UCCCAGCAAUAUUACGCCCG | -3.3 ± 0.21 | -2.65 ± 0.31 |
| UGGUAGCAAUAUUACGAAAC | -4.02 ± 0.42 | -2.42 ± 0.45 |
| GUCUAGCAAUAUUACGGCCU | -2.09 ± 0.19 | -1.19 ± 0.16 |
| AUGAAGCAAUAUUACGCAAG | -0.379 ± 0.085 | -0.121 ± 0.11 |
| CAAAAGCAAUAUUACGAUGU | -2.32 ± 0.075 | -1.66 ± 0.11 |
| GCGGAGCAAUAUUACGUGUC | -2.84 ± 0.3 | -1.06 ± 0.43 |
| GUCAAGCAAUAUUACGCCCG | -2.15 ± 0.21 | -1.11 ± 0.2 |
| GUAGAGCAAUAUUACGGAAG | -2.83 ± 0.29 | -1.42 ± 0.4 |

| Sequence | self-splicing fitness (ln) (30 °C) | self-splicing fitness (ln) (37 °C) |
| --- | --- | --- |
| GGGUAGCAAUAUUACGACGC | -1.08 ± 0.14 | 0.108 ± 0.25 |
| AUUCAGCAAUAUUACGAAUC | -2.12 ± 0.2 | -0.519 ± 0.32 |
| GGUCAGCAAUAUUACGCUUA | 0.0476 ± 0.059 | 0.296 ± 0.078 |
| AACCAGCAAUAUUACGGGGC | -3.59 ± 0.16 | -2.64 ± 0.16 |
| GCGAAGCAAUAUUACGCCAC |  | -2.24 ± 0.42 |
| GCACAGCAAUAUUACGUUGA | -0.837 ± 0.071 | -0.158 ± 0.072 |
| UCUUAGCAAUAUUACGACCU | -1.75 ± 0.4 | 0.256 ± 0.43 |
| GCCAAGCAAUAUUACGCCAU | -3.22 ± 0.37 | -3.45 ± 0.46 |
| AAACAGCAAUAUUACGAUAA | -1.6 ± 0.085 | -0.365 ± 0.092 |
| UAGUAGCAAUAUUACGAUCG | -0.771 ± 0.095 | 0.251 ± 0.12 |
| UCUUAGCAAUAUUACGUUAA | -2.98 ± 0.26 | -2.67 ± 0.38 |
| GCUUAGCAAUAUUACGUGCU | -2.78 ± 0.19 | -1.41 ± 0.18 |
| CGUUAGCAAUAUUACGACUU | -1.03 ± 0.12 | -0.0418 ± 0.17 |
| GUACAGCAAUAUUACGUGGU | -3.43 ± 0.16 | -2.49 ± 0.17 |
| AUCGAGCAAUAUUACGACGA | -0.908 ± 0.099 | -0.324 ± 0.13 |
| UACCAGCAAUAUUACGCAUC | -1.93 ± 0.095 | -1.13 ± 0.095 |
| CACUAGCAAUAUUACGGGGU | -3.32 ± 0.19 | -2.37 ± 0.2 |
| CCGUAGCAAUAUUACGGAUC | -3.86 ± 0.2 | -2.03 ± 0.19 |
| UUUCAGCAAUAUUACGGAUC | -1.14 ± 0.07 | -0.289 ± 0.089 |
| ACUCAGCAAUAUUACGAACU | -0.166 ± 0.053 | 0.599 ± 0.066 |
| AUACAGCAAUAUUACGGCGA | -1.08 ± 0.096 | -0.781 ± 0.11 |
| CGUUAGCAAUAUUACGUAGC | -3.37 ± 0.22 | -2.68 ± 0.25 |
| GUAUAGCAAUAUUACGUGAU | -2.29 ± 0.15 | -1.71 ± 0.17 |
| CAAGAGCAAUAUUACGUUUU | -3.35 ± 0.16 | -2.29 ± 0.15 |

Reference: the supplement of paper PMC7877785
